Test results as given in paper doi:10.1101/2022.02.20.481182 (bioRxiv, 2022).
No end group written: not given here.

B1: BRPF2 bromodomain, wild-type, N-terminal His6-tagged (domain or fragment)
chain: EQVAMELRLTPLTVLLRSVLDQLQDKDPARIFAQPVSLKEVPDYLDHIKHPMDFATMRKRLEAQGYKNLHEFEEDFDLIIDNCMKYNARDTVFYRAAVRLRDQGGVVLRQARREVDSIGLEEASGMHLPERPA

Key:
Test in all cases: ITC
[1] = biological target: histone H4K12ac (1-15) peptide (UniProt P62805 2-16, acetyl-lysine at K12)
[2] = biological target: histone H4K5acK8ac (1-15) peptide (UniProt P62805 2-16, acetyl-lysine at K5 and K8)
[3] = biological target: histone H4K5ac (1-15) peptide (UniProt P62805 2-16, acetyl-lysine at K5)
[4] = biological target: histone H4K8acK12ac (1-15) peptide (UniProt P62805 2-16, acetyl-lysine at K8 and K12)
[5] = biological target: histone H4K8ac (1-15) peptide (UniProt P62805 2-16, acetyl-lysine at K8)
[6] = biological target: histone H4K5acK12ac (1-15) peptide (UniProt P62805 2-16, acetyl-lysine at K5 and K12)
[7] = biological target: B1

## B1
[1]
  Kd: 18.2 ± 1.2 µM
[2]
  Kd: 28.5 ± 1.6 µM
[3]
  Kd: 3.5 ± 0.4 µM
[4]
  Kd: 44.7 ± 3.5 µM
[5]
  Kd: 6.2 ± 0.6 µM
[6]
  Kd: 3.2 ± 0.1 µM

B2: BRPF2 bromodomain I586F mutant (domain or fragment)
chain: EQVAMELRLTPLTVLLRSVLDQLQDKDPARFFAQPVSLKEVPDYLDHIKHPMDFATMRKRLEAQGYKNLHEFEEDFDLIIDNCMKYNARDTVFYRAAVRLRDQGGVVLRQARREVDSIGLEEASGMHLPERPA
[3]
  binding result: binds

## GKGGAK(Ac)RHRKV (peptide, UniProt P62805 12-22, looked up) [histone H4K16ac (11-21) peptide]
[7]
  Kd: 20.5 ± 1.4 µM

## KSTGGK(Ac)APRKQ (peptide, UniProt P68431 10-20, looked up) [histone H3K14ac (9-19) peptide]
[7]
  Kd: 10.2 ± 0.2 µM
